Tests used:
[1] = target: IL-23 (p40/p19 heterodimer), recombinant human (Homo sapiens, UniProt P29460;Q9NPF7 SEQ:23-328,SEQ:20-189); assay: in presence of competitor tRNA (18,000-fold excess); details: tags: R&D Systems 1290-IL-010/CF (catalogue number stated for the selection)
[2] = target: T1, IL-23 (p40/p19 heterodimer), endogenous from activated monocytes (Homo sapiens, UniProt P29460;Q9NPF7 SEQ:23-328,SEQ:20-189); assay: cell_activity; STAT3 activation in PHA blasts, endogenous IL-23
Protocol: Additionally, the ability of ARC20122 as well as its minimer ARC32225 to inhibit IL-23 dependent stimulation of STAT3 activity in PHA-Blast cells was tested. This assay utilized endogenous IL-23 produced from purified monocytes as described herein. […] ARC32225 performed slightly better than its parent clone with an IC₅₀ of 0.075 nM±0.030 nM. In both cases, the activity was markedly better than the control anti-p19 antibody, IC₅₀=0.69 nM±0.12 nM.
(§1) The ability of ARC32225 to inhibit endogenous IL-23 activation of PHA/IL-2 activated T-cells was tested by measuring levels of phospho-STAT3 (“phospho-STAT3 assay”). The binding of IL-23 to its receptor on activated T-cells stimulates several STAT pathways, including STAT3. Peripheral Blood Mononuclear Cells (PBMC) from fresh human blood were isolated by centrifugation in a Histopaque gradient and treated with PHA/IL-2 to enrich for T-cells and to upregulate IL-23 receptors. Cells were serum starved and treated with endogenous IL-23 for 15 minutes, and then lysed. Relative levels of phospho-STAT3 in IL-23 treated lysates, in the presence and absence of ARC32225 or a neutralizing p19 antibody, were measured by ELISA (Cell Signaling Technologies, Danvers, Mass.). Titrations of aptamer/antibody were used to generate inhibition curves from which IC₅₀ determinations were made.

[3] = target: T1, IL-23 (p40/p19 heterodimer), endogenous …; assay: cell_activity; phospho-STAT3 ELISA in PHA/IL-2 T-cells, seven titrations; a separate comparison with ARC20122 gave 0.075±0.030 nM (p832)
Protocol: as §1
Percent inhibition was recorded for each concentration tested for all donors (data not shown). Individual IC50 for each donor were also recorded (data not shown).

[4] = target: T1, IL-23 (p40/p19 heterodimer), endogenous …; assay: cell_activity; STAT3 inhibition assay; compensatory pair restores activity; IL-23 source not stated for this assay
[5] = target: T1, IL-23 (p40/p19 heterodimer), endogenous …; assay: cell_activity; STAT3 inhibition assay; disrupts G2-C30 loop-tail tertiary contact; IL-23 source not stated for this assay

T1 sequence (P29460 23-328, chain 1 of 2): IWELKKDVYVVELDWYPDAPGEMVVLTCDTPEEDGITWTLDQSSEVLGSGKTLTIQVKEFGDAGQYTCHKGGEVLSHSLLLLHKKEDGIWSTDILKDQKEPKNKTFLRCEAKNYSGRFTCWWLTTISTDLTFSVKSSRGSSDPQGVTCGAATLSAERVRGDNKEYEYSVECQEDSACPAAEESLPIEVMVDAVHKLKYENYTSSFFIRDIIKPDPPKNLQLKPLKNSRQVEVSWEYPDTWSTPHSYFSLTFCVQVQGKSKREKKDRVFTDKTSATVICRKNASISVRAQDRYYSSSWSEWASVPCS
T1 sequence (Q9NPF7 20-189, chain 2 of 2): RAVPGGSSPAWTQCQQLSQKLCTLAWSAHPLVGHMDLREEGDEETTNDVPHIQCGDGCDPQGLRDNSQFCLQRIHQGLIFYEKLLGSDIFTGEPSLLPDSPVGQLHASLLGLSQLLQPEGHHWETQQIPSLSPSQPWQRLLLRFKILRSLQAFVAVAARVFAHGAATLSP
IL-23 (p40/p19 heterodimer), recombinant human, sequence (P29460 23-328, chain 1 of 2): as the sequence (P29460 23-328, chain 1 of 2) above
IL-23 (p40/p19 heterodimer), recombinant human, sequence (Q9NPF7 20-189, chain 2 of 2): as the sequence (Q9NPF7 20-189, chain 2 of 2) above

B1: ARC20122 (ssRNA)
RNA: GGAGGGAAAAGUUAUCAGGCUUCUAUCGGGCGCCGCGUUUUCCCUGUGUUAGCCAUCGUCCGACGAGUAGGCUAGUCUGAUGCC
modifications: 2'-OMe A and G, 2'-F C and U (mA,mG,fC,fU)
B1 showed a Kd [1] of 9.1 nM and an IC50 [2] of 0.26 nM.

B2: ARC32225 (ssRNA)
RNA: AGGGAAAUCAGGCUUUAUCGGGCGCCGCUCCCUGUGCCAUCGUCCGAGAGUAGGUAGUCUG
modifications: mixed 2'-OMe and 2'-F as printed (10 mA, 1 fA, 14 mG, 6 fG, 3 mC, 13 fC, 1 mU, 13 fU); 3' idT
Work on B2 yielded an IC50 [3] of 0.296 nM.

B3: ARC32225 G2A/C30U (ssRNA)
RNA: AAGGAAAUCAGGCUUUAUCGGGCGCCGCUUCCUGUGCCAUCGUCCGAGAGUAGGUAGUCUGU
modifications: mixed 2'-OMe and 2'-F as parent [mixed 2'-OMe and 2'-F as parent (positions not given)]
B3 gave an IC50 [4] of 0.5 nM.

B4: ARC32225 G2A (ssRNA)
RNA: AAGGAAAUCAGGCUUUAUCGGGCGCCGCUCCCUGUGCCAUCGUCCGAGAGUAGGUAGUCUGU
modifications: mixed 2'-OMe and 2'-F as parent [mixed 2'-OMe and 2'-F as parent (positions not given)]
For B4, the IC50 [5] was 108 nM.
